Assay results published in paper PMC6327041 (Nature Communications, 2019).

Molecular target: T1, KDM5A1-797 ΔPHD1 (Homo sapiens, UniProt P29375, DEL288-347/INS286GSGSGSG)
T1 construct: The KDM5A1-797 ΔPHD1 construct was generated after removing the residues Ser287-Lys347; His (N, cleaved yes); made in house; host or cells: Sf21 insect cells (baculovirus)
T1 sequence (P29375 with tags, fused parts or gaps INS286GSGSGSG/DEL288-347): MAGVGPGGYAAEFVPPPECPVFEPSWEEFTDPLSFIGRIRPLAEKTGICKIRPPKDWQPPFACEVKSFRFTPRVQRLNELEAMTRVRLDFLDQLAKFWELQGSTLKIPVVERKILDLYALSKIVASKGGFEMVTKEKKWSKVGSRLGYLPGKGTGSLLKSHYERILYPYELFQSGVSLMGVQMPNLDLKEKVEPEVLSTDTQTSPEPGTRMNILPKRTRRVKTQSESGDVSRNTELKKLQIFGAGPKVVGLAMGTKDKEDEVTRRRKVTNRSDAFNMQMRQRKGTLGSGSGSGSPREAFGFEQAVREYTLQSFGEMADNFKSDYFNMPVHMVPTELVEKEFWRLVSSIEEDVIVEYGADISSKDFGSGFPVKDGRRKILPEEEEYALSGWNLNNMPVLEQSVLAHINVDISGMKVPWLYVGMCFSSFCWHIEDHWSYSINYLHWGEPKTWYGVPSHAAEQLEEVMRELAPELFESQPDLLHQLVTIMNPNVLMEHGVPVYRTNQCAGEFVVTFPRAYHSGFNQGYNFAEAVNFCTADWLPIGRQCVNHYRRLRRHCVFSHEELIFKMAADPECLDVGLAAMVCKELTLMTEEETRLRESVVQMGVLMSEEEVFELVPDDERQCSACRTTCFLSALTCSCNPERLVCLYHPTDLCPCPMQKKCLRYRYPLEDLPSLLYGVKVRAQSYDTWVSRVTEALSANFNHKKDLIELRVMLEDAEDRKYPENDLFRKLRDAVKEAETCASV
Assay: KDM5A ΔPHD1 demethylation, formaldehyde release assay
Type: biochemical
Method: The KDM5A1-797 ΔPHD1 construct was generated after removing the residues Ser287-Lys347 and replacing them with a (GS)4 linker before cloning into a pFASTBAC HTA vector. The protocol for expression and purification of the KDM5A1-797 ΔPHD1 construct was the same as WT.
Michaelis–Menten parameters were determined using Graphpad Prism.

[1] = KDM5A1-797 ΔPHD1, n ≥ 3, s.e.m.

- kcat/Km (KDM5A1-797 ΔPHD1): 57.7 ± 13.7 M⁻¹ s⁻¹
- Km [1]: 819 ± 133 µM
- kcat [1]: 0.0472 ± 0.0035 s⁻¹
- increase in Km on PHD1 deletion (ΔPHD1 vs WT KDM5A1-797): eightfold
Substance: Ac-H3K4me3 21mer: N-terminally acetylated 21mer H3K4me3 peptide, catalytic domain substrate
